Biological target: TTP TZF (RBD) (Homo sapiens, UniProt P26651 102-170)
Assay: NMR

TTP TZF (RBD), sequence (P26651 102-170): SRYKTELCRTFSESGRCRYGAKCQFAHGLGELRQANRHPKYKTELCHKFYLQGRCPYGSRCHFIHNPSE

Binder: UUUUAUUUAUUUU (ssRNA) [ARE13 (NMR)]
- binding result: binds

Source: publication PMC5129185
